Data published in patent publication CN117624352A (UNIV XIAMEN, dated 2024).

How the values were obtained:
[1] = target: T1, Tmem176b表达纯化抗原142-196aa xy02b-hFc-6His(Abclonal) (mouse, UniProt Q9R1Q6 142-196); assay: Capture ELISA; antibody coated at 2 μg/mL, antigen titrated from 0.1 μg/ml in 3-fold steps
T1 construct: range 142-196; also called 体外表达纯化抗原Tmem176b; Tmem176b抗原; not shown: hFc of the xy02b-hFc-6His vector; 6His tag
T1 sequence (looked up): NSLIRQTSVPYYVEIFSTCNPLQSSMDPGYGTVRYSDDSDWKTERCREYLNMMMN

[2] = target: T1, Tmem176b表达纯化抗原142-196aa …; assay: Biacore (SPR); antigen coupled to the chip, 6E8 as analyte at 1.5625-50 nM; mean of 3 runs

EC50 [1]: 0.893 ng/mL
Kd [2]: 0.959 nM
B1: Tmem176b单克隆抗体6E8 (antibody, V domains shown)
VH: QSVEESGGRLLKPDETLTLTCTVSGFSLSSYAMSWVRQAPGKGLEWIGIISIRGNTYYASWAKGRFTISKTSTTVDLKITSPTTEDTATYFCARNTLYSSGWGGSDLWGQGTLVTVSS
VL: AQVLTQTPSPVSAAVGGTVTINCQASQSVYNNNNLAWYQQKPGQPPKLLIYYASTLASGVSSRFKGSGSGTQFTLTISGVQCDDAATYYCQGEFSCSSADCNAFGGGTEVVVKG
notes: Recombinant rabbit monoclonal antibody; also called α-Tmem176b单抗(6E8); Tmem176b单抗6E8
